Reference: patent US20260256934A1 (Daiichi Sankyo, published 2026)

How the values were obtained:
[1] = target: T1, Recombinant Human Fc gammaRIIA/CD32a (R167) Protein (R&D systems) (human, UniProt P12318 36-218); assay: SPR (Biacore T200) as in Test Example 16; RU at 4.7 µM conjugate
T1 construct: Bought protein; also called human FcγRIIa
T1 sequence (looked up): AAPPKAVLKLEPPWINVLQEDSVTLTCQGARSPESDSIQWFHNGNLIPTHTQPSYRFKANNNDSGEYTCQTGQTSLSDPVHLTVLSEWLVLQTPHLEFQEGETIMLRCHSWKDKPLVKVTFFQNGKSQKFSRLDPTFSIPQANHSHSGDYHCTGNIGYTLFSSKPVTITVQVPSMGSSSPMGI

[2] = target: T2, Recombinant Human Fc gamma RI/CD64 Protein (R&D systems) (human, UniProt P12314 16-288); assay: SPR (Biacore T200) as in Test Example 15; RU at 4.7 µM conjugate
T2 construct: His-tagged; also called human FcγRI; His-tagged human FcγRI
T2 sequence (P12314 16-288 limits assumed): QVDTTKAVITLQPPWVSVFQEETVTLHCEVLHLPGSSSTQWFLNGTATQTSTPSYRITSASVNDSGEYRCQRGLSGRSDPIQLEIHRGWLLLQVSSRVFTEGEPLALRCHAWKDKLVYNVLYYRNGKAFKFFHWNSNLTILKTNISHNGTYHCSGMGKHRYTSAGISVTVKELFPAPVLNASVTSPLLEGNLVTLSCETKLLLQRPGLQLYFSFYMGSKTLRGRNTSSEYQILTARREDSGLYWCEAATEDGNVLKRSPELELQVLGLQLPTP

[3] = target: T3, Recombinant Human Fc gamma RIIB/C (CD32b/c) Protein (R&D systems) (human, UniProt P31994 46-217); assay: SPR (Biacore T200) as in Test Example 17; RU at 4.7 µM conjugate
T3 construct: Bought protein; also called human FcγRIIb/c
T3 sequence (looked up): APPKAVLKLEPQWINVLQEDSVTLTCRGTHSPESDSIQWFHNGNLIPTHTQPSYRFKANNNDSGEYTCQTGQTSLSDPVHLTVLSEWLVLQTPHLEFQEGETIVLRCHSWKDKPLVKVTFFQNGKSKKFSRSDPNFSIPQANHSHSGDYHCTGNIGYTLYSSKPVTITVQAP

[4] = target: T3, Recombinant Human Fc gamma RIIB/C …; assay: SPR (Biacore T200); FcγRIIb/c immobilised directly on CM5, antibody as analyte 0.9-4.7 µM
[5] = target: T2, Recombinant Human Fc gamma RI/CD64 …; assay: SPR (Biacore T200); His-tagged FcγRI captured on anti-His chip, antibody as analyte 0.3-4.7 µM
[6] = target: T1, Recombinant Human Fc gammaRIIA/CD32a …; assay: SPR (Biacore T200); FcγRIIa immobilised directly on CM5, antibody as analyte 0.9-4.7 µM

Measured: binding result

B1: anti-EGFR antibody 1-CDN conjugate 1 (antibody, human IgG1, kappa, L234A L235A)
heavy: QVQLQESGPGLVKPSETLSLTCTVSGGSVSSGDYYWTWIRQSPGKGLEWIGHIYYSGNTNYNPSLKSRLTISIDTSKTQFSLKLSSVTAADTAIYYCVRDRVTGAFDIWGQGTMVTVSSASTKGPSVFPLAPSSKSTSGGTAALGCLVKDYFPEPVTVSWNSGALTSGVHTFPAVLQSSGLYSLSSVVTVPSSSLGTQTYICNVNHKPSNTKVDKRVEPKSCDKTHTCPPCPAPEAAGGPSVFLFPPKPKDTLMISRTPEVTCVVVGVSHEDPEVKFNWYVDGVEVHNAKTKPREEQYNSTYRVVSVLTVLHQDWLNGKEYKCKVSNKALPAPIEKTISKAKGQPREPQVYTLPPSREEMTKNQVSLTCLVKGFYPSDIAVEWESNGQPENNYKTTPPVLDSDGSFFLYSKLTVDKSRWQQGNVFSCSVMHEALHNHYTQKSLSLSPGK
light: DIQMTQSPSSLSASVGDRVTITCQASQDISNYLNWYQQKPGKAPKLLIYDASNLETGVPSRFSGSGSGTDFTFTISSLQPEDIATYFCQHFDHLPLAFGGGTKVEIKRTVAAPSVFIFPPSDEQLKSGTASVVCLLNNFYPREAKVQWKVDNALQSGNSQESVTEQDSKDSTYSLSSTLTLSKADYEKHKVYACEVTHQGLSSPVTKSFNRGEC
modifications: CDN drug-linker 17a conjugated through the remodeled N297 glycan (SG type); average number of conjugated drugs 3.7
notes: also called modified anti-EGFR antibody 1-CDN conjugate 1; antibody-drug conjugate 1
binds: [1] | [2] | [3]

B2: anti-EGFR antibody 1-CDN conjugate 2 (antibody, human IgG1, kappa, L234A L235A)
heavy: B1 heavy
light: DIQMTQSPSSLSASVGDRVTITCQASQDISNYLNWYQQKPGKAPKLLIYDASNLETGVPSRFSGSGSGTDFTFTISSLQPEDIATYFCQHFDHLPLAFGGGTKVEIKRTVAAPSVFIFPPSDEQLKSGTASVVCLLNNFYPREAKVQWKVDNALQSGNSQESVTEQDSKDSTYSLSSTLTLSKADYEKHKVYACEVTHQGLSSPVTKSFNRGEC
modifications: CDN drug-linker 17a conjugated through the remodeled N297 glycan (MSG1 type); average number of conjugated drugs 1.9
notes: also called modified anti-EGFR antibody 1-CDN conjugate 2; antibody-drug conjugate 2
binds: [1] | [2] | [3]

B3: modified anti-EGFR antibody 1 (antibody, human IgG1, kappa, L234A L235A)
heavy: B1 heavy
light: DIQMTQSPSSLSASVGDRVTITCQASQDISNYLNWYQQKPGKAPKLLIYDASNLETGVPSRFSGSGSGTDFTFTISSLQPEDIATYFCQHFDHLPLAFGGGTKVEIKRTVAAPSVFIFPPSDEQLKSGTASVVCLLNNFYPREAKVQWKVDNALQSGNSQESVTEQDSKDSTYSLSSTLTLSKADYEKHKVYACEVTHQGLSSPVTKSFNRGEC
notes: IgG1 with L234A/L235A/D265G (LALA-DG) introduced into anti-EGFR antibody A; also called LALA-DG; LALA-DG mutant anti-EGFR antibody
binds: [4] | [5] | [6]

B4: anti-EGFR antibody B (Vectibix) (antibody, human IgG2, kappa)
heavy: QVQLQESGPGLVKPSETLSLTCTVSGGSVSSGDYYWTWIRQSPGKGLEWIGHIYYSGNTNYNPSLKSRLTISIDTSKTQFSLKLSSVTAADTAIYYCVRDRVTGAFDIWGQGTMVTVSSASTKGPSVFPLAPCSRSTSESTAALGCLVKDYFPEPVTVSWNSGALTSGVHTFPAVLQSSGLYSLSSVVTVPSSNFGTQTYTCNVDHKPSNTKVDKTVERKCCVECPPCPAPPVAGPSVFLFPPKPKDTLMISRTPEVTCVVVDVSHEDPEVQFNWYVDGVEVHNAKTKPREEQFNSTFRVVSVLTVVHQDWLNGKEYKCKVSNKGLPAPIEKTISKTKGQPREPQVYTLPPSREEMTKNQVSLTCLVKGFYPSDIAVEWESNGQPENNYKTTPPMLDSDGSFFLYSKLTVDKSRWQQGNVFSCSVMHEALHNHYTQKSLSLSPGK
light: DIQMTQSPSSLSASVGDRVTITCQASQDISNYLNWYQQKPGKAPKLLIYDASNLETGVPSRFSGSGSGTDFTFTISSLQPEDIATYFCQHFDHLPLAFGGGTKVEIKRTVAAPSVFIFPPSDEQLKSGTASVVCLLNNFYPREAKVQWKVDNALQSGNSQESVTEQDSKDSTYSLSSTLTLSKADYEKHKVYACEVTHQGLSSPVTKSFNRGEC
notes: Commercial Vectibix (IgG2), buffer-exchanged into HBS-EP+; also called anti-EGFR antibody (IgG2); IgG2
binds: [4] | [5] | [6]

B5: anti-EGFR antibody B-CDN conjugate 2 (antibody, human IgG2, kappa)
heavy: B4 heavy
light: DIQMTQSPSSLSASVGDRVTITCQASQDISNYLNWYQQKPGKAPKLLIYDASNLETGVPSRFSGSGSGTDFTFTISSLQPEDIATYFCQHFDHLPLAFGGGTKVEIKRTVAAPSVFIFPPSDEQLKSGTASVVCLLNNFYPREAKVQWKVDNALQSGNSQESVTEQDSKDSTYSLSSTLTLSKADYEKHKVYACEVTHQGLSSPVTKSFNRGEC
modifications: CDN drug-linker 17a conjugated through the remodeled N297 glycan (MSG1 type); average number of conjugated drugs 1.9
notes: Antibody-drug conjugate of Vectibix (IgG2), DAR about 2; Light chain is inferred as for m1; also called antibody-drug conjugate 8
binds: [1] | [2] | [3]
